Like-named read-outs stand apart in the source and are kept apart here.
Key:
[1] = biological target: Ddn (Mycobacterium tuberculosis, UniProt P9WP15); test: F420H2 oxidation, absorbance at […] nm
[2] = test system: CC1=C(C)C(=O)c2ccccc2C1=O; test: purified protein; settings: pH 8.0
[3] = test system: CC1=CC(=O)c2ccccc2C1=O; test: purified protein
[4] = test system: COC1=C(OC)C(=O)C(C)=CC1=O; test: purified protein; settings: pH 8.0
[5] = test system: COC1=C(OC)C(=O)C(C/C=C(\C)CCC=C(C)C)=C(C)C1=O; test: purified protein; settings: pH 8.0
[6] = test system: COC1=C(OC)C(=O)C(CC=C(C)C)=C(C)C1=O; test: purified protein; settings: pH 8.0
[7] = co-substrate 100 μM F420H2, 200 mM Tris-HCl pH 8.0, 0.01% Triton X-100

Sequence of Ddn (P9WP15 whole entry): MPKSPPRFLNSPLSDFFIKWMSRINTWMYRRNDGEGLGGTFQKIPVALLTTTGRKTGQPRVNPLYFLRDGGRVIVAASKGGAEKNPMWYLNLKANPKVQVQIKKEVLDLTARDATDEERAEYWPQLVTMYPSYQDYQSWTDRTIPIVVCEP

Question: `O=C1C=CC(=O)c2ccccc21` [1,4-naphthoquinone] was tested. Which Km [1, 7] did it give?
Answer: Its Km is 2230 ± 1190 nM.

Question: How did the Km [1] turn out when `O=[N+]([O-])c1cn2c(n1)OC[C@@H](OCc1ccc(OC(F)(F)F)cc1)C2` [PA-824] was run?
Answer: Its Km is 28600 ± 3550 nM.

Question: `CC1=CC(=O)c2c(O)cccc2C1=O` [Plumbagin] was tested. Which Km [1, 7] did it give?
Answer: The Km was 2170 ± 2740 nM.

Question: What does the source list for (Mycobacterium tuberculosis H37Rv)?
Answer: Km [2]: 2.21 ± 0.98 µM; kcat/Km [2]: 40500 M⁻¹ s⁻¹; Km [3]: 2.09 ± 0.91 µM; kcat/Km [3]: 255000 M⁻¹ s⁻¹; Km ([3]; pH 8.0): 3.44 ± 1.27 µM; kcat/Km ([3]; pH 8.0): 86000 M⁻¹ s⁻¹; Km [4]: 12.35 ± 2.65 µM; kcat/Km [4]: 1670 M⁻¹ s⁻¹; Km [5]: 3.14 ± 0.97 µM; kcat/Km [5]: 28800 M⁻¹ s⁻¹; Km [6]: 10.12 ± 2.23 µM; kcat/Km [6]: 3500 M⁻¹ s⁻¹

Reference: PMC3567243 (Molecular Microbiology, 2012)
